Assay results reported in the supplement of paper PMC10567573.

B1: SNX8 (parent)
chain: RMVPALPPKRMLGADREFIEARRR

Variants of: B1
Assay: protein stability index of a GFP-peptide fusion (GPS, HEK-293T) (PSI 1-6); higher = more stable
Conditions: c terminus: a fixed tail appended
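Further: lentivirally expressed fusions sorted by FACS into six bins by GFP to DsRed ratio, PSI derived from sequencing read proportions per bin multiplied by bin number.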

Row | Variant | protein stability index
1 | RMVPALPPKRMLGADRPFIEARRR [E17P] | 4.09
2 | RMVPALPPKRMLGADRAFIEARRR [E17A] | 3.55
3 | RMVPALPPKRMLGADRCFIEARRR [E17C] | 3.61
4 | RMVPALPPKRMLGADRMFIEARRR [E17M] | 2.38
5 | RMVPALPPKRMLGADRKFIEARRR [E17K] | 4.19
6 | RMVPALPPKRMLGADRIFIEARRR [E17I] | 2.64
7 | RMVPALPPKRMLGADRGFIEARRR [E17G] | 3.97
8 | RMVPALPPKRMLGADRLFIEARRR [E17L] | 3.37
9 | RMVPALPPKRMLGADRWFIEARRR [E17W] | 2.19
10 | RMVPALPPKRMLGADRFFIEARRR [E17F] | 2.08
11 | RMVPALPPKRMLGADRVFIEARRR [E17V] | 2.81
12 | RMVPALPPKRMLGADRRFIEARRR [E17R] | 4.1
13 | RMVPALPPKRMLGADRYFIEARRR [E17Y] | 3.21
14 | RMVPALPPKRMLGADRHFIEARRR [E17H] | 3.45
15 | RMVPALPPKRMLGADRNFIEARRR [E17N] | 4
16 | RMVPALPPKRMLGADRTFIEARRR [E17T] | 3.55
17 | RMVPALPPKRMLGADRDFIEARRR [E17D] | 3.67
18 | RMVPALPPKRMLGADRSFIEARRR [E17S] | 3.87
19 | RMVPALPPKRMLGADRQFIEARRR [E17Q] | 3.34
20 | RMVPALPPKRMLGADREFIRARRR [E20R] | 4.28
21 | RMVPALPPKRMLGADREFIQARRR [E20Q] | 4.01
22 | RMVPALPPKRMLGADREFIYARRR [E20Y] | 3.68
23 | RMVPALPPKRMLGADREFIGARRR [E20G] | 4.02
24 | RMVPALPPKRMLGADREFIPARRR [E20P] | 4.24

Row | Variant | protein stability index
25 | RMVPALPPKRMLGADREFILARRR [E20L] | 3.9
26 | RMVPALPPKRMLGADREFIAARRR [E20A] | 3.51
27 | RMVPALPPKRMLGADREFIIARRR [E20I] | 3.27
28 | RMVPALPPKRMLGADREFIFARRR [E20F] | 3.12
29 | RMVPALPPKRMLGADREFIMARRR [E20M] | 3.39
30 | RMVPALPPKRMLGADREFINARRR [E20N] | 4.12
31 | RMVPALPPKRMLGADREFITARRR [E20T] | 3.99
32 | RMVPALPPKRMLGADREFISARRR [E20S] | 4
33 | RMVPALPPKRMLGADREFIHARRR [E20H] | 3.98
34 | RMVPALPPKRMLGADREFIKARRR [E20K] | 3.94
35 | RMVPALPPKRMLGADREFIVARRR [E20V] | 4.11
36 | RMVPALPPKRMLGADREFIWARRR [E20W] | 3.26
37 | RMVPALPPKRMLGADREFIDARRR [E20D] | 4.31
38 | RMVPALPPKRMLGADREFICARRR [E20C] | 4.06
39 | RMVPALPPKRMLGADREFIEADRR [R22D] | 4.53
40 | RMVPALPPKRMLGADREFIEATRR [R22T] | 3.75
41 | RMVPALPPKRMLGADREFIEAMRR [R22M] | 3.16
42 | RMVPALPPKRMLGADREFIEAGRR [R22G] | 4.02
43 | RMVPALPPKRMLGADREFIEASRR [R22S] | 3.75
44 | RMVPALPPKRMLGADREFIEAIRR [R22I] | 2.74
45 | RMVPALPPKRMLGADREFIEACRR [R22C] | 4
46 | RMVPALPPKRMLGADREFIEAERR [R22E] | 4.43
47 | RMVPALPPKRMLGADREFIEAPRR [R22P] | 3.79
48 | RMVPALPPKRMLGADREFIEAYRR [R22Y] | 3.43

Row | Variant | protein stability index
49 | RMVPALPPKRMLGADREFIEAHRR [R22H] | 3.76
50 | RMVPALPPKRMLGADREFIEAQRR [R22Q] | 4.05
51 | RMVPALPPKRMLGADREFIEAWRR [R22W] | 2.73
52 | RMVPALPPKRMLGADREFIEANRR [R22N] | 3.77
53 | RMVPALPPKRMLGADREFIEAVRR [R22V] | 3.33
54 | RMVPALPPKRMLGADREFIEAARR [R22A] | 4.33
55 | RMVPALPPKRMLGADREFIEALRR [R22L] | 2.92
56 | RMVPALPPKRMLGADREFIEAKRR [R22K] | 4.09
57 | RMVPALPPKRMLGADREFIEAFRR [R22F] | 3.58
58 | RMVPALPPKRMLGADREFIEARRL [R24L] | 2.92
59 | RMVPALPPKRMLGADREFIEARRE [R24E] | 4.23
60 | RMVPALPPKRMLGADREFIEARRC [R24C] | 3.53
61 | RMVPALPPKRMLGADREFIEARRA [R24A] | 4
62 | RMVPALPPKRMLGADREFIEARRH [R24H] | 3.83
63 | RMVPALPPKRMLGADREFIEARRV [R24V] | 3.31
64 | RMVPALPPKRMLGADREFIEARRG [R24G] | 3.94
65 | RMVPALPPKRMLGADREFIEARRW [R24W] | 3.05
66 | RMVPALPPKRMLGADREFIEARRS [R24S] | 3.46
67 | RMVPALPPKRMLGADREFIEARRY [R24Y] | 2.38
68 | RMVPALPPKRMLGADREFIEARRF [R24F] | 3.2
69 | RMVPALPPKRMLGADREFIEARRD [R24D] | 4
70 | RMVPALPPKRMLGADREFIEARRN [R24N] | 3.66
71 | RMVPALPPKRMLGADREFIEARRQ [R24Q] | 3.52
72 | RMVPALPPKRMLGADREFIEARRT [R24T] | 3.95

Row | Variant | protein stability index
73 | RMVPALPPKRMLGADREFIEARRM [R24M] | 2.96
74 | RMVPALPPKRMLGADREFIEARRI [R24I] | 3.11
75 | RMVPALPPKRMLGADREFIEARRK [R24K] | 3.74
76 | RMVPALPPKRMLGADREFIEARRP [R24P] | 3.53
77 | RMVPALPPKRMLGADREFIEVRRR [A21V] | 3.76
78 | RMVPALPPKRMLGADREFIENRRR [A21N] | 4.52
79 | RMVPALPPKRMLGADREFIEYRRR [A21Y] | 3.24
80 | RMVPALPPKRMLGADREFIEERRR [A21E] | 3.43
81 | RMVPALPPKRMLGADREFIERRRR [A21R] | 3.56
82 | RMVPALPPKRMLGADREFIEMRRR [A21M] | 3.04
83 | RMVPALPPKRMLGADREFIEHRRR [A21H] | 4.32
84 | RMVPALPPKRMLGADREFIETRRR [A21T] | 3.96
85 | RMVPALPPKRMLGADREFIEWRRR [A21W] | 2.67
86 | RMVPALPPKRMLGADREFIEIRRR [A21I] | 3.34
87 | RMVPALPPKRMLGADREFIEFRRR [A21F] | 3.31
88 | RMVPALPPKRMLGADREFIECRRR [A21C] | 4.08
89 | RMVPALPPKRMLGADREFIEGRRR [A21G] | 4.32
90 | RMVPALPPKRMLGADREFIEKRRR [A21K] | 4.19
91 | RMVPALPPKRMLGADREFIEQRRR [A21Q] | 3.61
92 | RMVPALPPKRMLGADREFIESRRR [A21S] | 3.12
93 | RMVPALPPKRMLGADREFIEPRRR [A21P] | 3.88
94 | RMVPALPPKRMLGADREFIELRRR [A21L] | 4.1
